Laboratory results as given in patent US7033991.
Where two headings read alike, the source gives them in different places. No end group written: not given here.

Key:
Conditions in all cases: modification not given
[1] = molecular target: T1, Furin (recombinant, truncated) (mouse), P23188
T1 chain: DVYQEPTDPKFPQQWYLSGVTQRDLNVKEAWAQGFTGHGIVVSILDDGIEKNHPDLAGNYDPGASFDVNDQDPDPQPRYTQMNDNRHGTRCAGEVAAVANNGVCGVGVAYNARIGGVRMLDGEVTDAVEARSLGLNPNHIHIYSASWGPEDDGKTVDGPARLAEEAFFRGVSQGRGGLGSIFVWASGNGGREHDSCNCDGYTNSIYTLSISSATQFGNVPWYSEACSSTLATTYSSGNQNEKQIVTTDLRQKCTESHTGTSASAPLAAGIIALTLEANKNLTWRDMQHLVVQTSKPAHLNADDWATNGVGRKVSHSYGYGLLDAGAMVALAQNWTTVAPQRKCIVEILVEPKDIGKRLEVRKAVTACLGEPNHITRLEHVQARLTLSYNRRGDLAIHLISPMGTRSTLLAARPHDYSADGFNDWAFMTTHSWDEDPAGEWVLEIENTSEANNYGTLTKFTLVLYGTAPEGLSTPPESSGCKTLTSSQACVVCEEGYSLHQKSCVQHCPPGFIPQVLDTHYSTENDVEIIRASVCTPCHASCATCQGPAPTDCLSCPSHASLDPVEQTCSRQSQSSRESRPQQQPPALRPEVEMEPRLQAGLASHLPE

PC2, P16519 [2] = molecular target: T2, PC2, P16519
T2 chain: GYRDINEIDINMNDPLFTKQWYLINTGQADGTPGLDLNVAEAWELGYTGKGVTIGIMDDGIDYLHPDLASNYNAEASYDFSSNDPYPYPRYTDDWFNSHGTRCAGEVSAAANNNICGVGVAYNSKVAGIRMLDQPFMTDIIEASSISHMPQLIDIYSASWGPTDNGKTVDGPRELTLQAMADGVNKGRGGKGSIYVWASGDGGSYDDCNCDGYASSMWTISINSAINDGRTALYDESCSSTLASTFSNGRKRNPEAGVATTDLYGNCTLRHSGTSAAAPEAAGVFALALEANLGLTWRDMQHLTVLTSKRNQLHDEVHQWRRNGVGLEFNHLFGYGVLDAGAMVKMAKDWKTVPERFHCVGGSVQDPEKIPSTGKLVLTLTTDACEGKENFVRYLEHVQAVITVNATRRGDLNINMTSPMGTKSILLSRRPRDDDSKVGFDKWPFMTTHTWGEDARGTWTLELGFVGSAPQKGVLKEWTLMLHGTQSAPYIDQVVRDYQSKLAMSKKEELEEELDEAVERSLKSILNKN

PC7, Q16549 = molecular target: T3, PC7, Q16549
T3 chain: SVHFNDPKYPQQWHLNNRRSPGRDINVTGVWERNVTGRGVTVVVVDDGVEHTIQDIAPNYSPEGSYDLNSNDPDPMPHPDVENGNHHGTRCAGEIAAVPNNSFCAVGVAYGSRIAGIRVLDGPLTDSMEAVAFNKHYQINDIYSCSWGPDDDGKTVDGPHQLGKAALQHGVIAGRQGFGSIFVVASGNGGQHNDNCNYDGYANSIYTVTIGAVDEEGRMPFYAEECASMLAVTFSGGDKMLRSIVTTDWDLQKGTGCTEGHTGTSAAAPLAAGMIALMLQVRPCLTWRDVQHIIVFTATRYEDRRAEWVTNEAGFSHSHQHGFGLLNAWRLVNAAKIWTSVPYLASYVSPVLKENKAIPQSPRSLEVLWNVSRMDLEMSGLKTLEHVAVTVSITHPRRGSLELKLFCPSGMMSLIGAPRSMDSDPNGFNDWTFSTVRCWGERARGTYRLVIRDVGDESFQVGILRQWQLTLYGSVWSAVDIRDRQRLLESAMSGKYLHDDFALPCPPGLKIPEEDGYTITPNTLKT

PACE4, P29122 [3] = molecular target: T4, PACE4, P29122
T4 chain: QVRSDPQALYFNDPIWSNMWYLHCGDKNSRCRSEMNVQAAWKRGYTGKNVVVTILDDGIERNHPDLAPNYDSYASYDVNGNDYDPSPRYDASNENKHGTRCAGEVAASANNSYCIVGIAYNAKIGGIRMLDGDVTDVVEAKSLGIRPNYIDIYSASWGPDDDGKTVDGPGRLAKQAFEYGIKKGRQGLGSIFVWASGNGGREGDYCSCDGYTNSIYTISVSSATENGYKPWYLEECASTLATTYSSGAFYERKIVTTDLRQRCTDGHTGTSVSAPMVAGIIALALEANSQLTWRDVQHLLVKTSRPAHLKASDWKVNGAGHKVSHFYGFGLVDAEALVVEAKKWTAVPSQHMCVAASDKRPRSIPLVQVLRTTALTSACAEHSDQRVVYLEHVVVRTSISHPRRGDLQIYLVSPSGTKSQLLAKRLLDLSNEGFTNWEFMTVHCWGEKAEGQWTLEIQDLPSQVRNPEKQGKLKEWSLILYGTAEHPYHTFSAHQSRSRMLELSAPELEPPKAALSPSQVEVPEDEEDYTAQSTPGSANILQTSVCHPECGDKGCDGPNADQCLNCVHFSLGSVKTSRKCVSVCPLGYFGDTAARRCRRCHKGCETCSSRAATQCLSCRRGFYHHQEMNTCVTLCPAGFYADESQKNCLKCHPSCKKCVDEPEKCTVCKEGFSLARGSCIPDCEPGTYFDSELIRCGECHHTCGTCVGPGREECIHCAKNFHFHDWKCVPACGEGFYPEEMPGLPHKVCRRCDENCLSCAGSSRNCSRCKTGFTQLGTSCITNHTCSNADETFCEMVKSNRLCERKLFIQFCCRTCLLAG

PC1, P29120 [4] = molecular target: T5, PC1, P29120
T5 chain: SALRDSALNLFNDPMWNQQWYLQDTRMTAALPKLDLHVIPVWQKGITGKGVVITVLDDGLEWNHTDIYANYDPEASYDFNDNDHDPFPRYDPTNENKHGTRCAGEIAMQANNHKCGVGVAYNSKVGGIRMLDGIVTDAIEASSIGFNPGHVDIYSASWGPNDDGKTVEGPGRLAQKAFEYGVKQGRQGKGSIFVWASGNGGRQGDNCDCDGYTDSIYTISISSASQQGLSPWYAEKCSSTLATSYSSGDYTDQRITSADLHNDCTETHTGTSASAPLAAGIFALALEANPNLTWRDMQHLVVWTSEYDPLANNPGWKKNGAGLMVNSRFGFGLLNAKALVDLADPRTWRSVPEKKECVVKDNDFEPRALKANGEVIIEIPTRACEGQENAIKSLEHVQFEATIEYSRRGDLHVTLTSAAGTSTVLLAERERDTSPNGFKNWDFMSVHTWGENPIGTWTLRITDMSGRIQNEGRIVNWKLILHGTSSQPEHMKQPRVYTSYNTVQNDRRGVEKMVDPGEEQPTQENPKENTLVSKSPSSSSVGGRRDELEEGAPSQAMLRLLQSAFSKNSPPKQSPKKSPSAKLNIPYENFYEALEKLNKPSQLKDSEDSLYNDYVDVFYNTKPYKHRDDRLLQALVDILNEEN

[5] = molecular target: T1, Furin (recombinant, truncated) (mouse), …
[6] = molecular target: T1, Furin (recombinant, truncated) (mouse), …
PACE4, P29122 [7] = molecular target: T4, PACE4, P29122
PC1, P29120 [8] = molecular target: T5, PC1, P29120
PC2, P16519 [9] = molecular target: T2, PC2, P16519
[10] = molecular target: T1, Furin (recombinant, truncated) (mouse), …
[11] = molecular target: T1, Furin (recombinant, truncated) (mouse), …
PC2, P16519 [12] = molecular target: T2, PC2, P16519
[13] = molecular target: T1, Furin (recombinant, truncated) (mouse), …
PC2, P16519 [14] = molecular target: T2, PC2, P16519
PACE4, P29122 [15] = molecular target: T4, PACE4, P29122
[16] = molecular target: T1, Furin (recombinant, truncated) (mouse), …
PC1, P29120 [17] = molecular target: T5, PC1, P29120
PC2, P16519 [18] = molecular target: T2, PC2, P16519
[19] = molecular target: T1, Furin (recombinant, truncated) (mouse), …

B1: Ac-MHKRRR-NH2 (peptide)
chain: Ac-MHKRRR-NH2
- Ki [1]: 10.3 µM
- Ki (PC2, P16519 [2]): 216 µM

B2: Furin propeptide fragment (peptide)
chain: QQVAKRRTKR
- Ki (PC7, Q16549): 0.5 µM

B3: Hexa-L-arginine (peptide)
chain: RRRRRR
- Ki (PACE4, P29122 [3]): 0.52 µM
- Ki (PC1, P29120 [4]): 3.9 µM
- Ki [5]: 0.114 µM

B4: Tetra-L-arginine (peptide)
chain: RRRR
- Ki [6]: 6.4 µM
- Ki (PACE4, P29122 [7]): > 200 µM
- Ki (PC1, P29120 [8]): > 200 µM

B5: LLRVKR-NH2 (peptide)
chain: LLRVKR-NH2
- Ki (PC2, P16519 [9]): 2.3 µM
- Ki [10]: 0.8 µM

B6: LLRVKR (peptide)
chain: LLRVKR
- Ki [11]: 0.42 µM
- Ki (PC2, P16519 [12]): 3.7 µM

B7: Ac-MRKRRR-NH2 (peptide)
chain: Ac-MRKRRR-NH2
- Ki [13]: 2.3 µM
- Ki (PC2, P16519 [14]): 1500 µM

B8: Hepta-L-arginine (peptide)
chain: RRRRRRR
- Ki (PACE4, P29122 [15]): 0.24 µM
- Ki [16]: 0.068 µM
- Ki (PC1, P29120 [17]): 5.2 µM

B9: Ac-HHKRRR-NH2 (peptide)
chain: Ac-HHKRRR-NH2
- Ki (PC2, P16519 [18]): 235 µM
- Ki [19]: 13.2 µM
